For series [1], the target named is T1, VcDnaB (Vibrio cholerae, UniProt A0A085R2T8 1-468). Put plainly: BLI; 1 mM ATP?; 100 nM VcDnaB + 25-100 nM VcDciA; loading increased, maximal at 25 nM; BLI: 50 mM Hepes pH 7.0, 150 mM NaCl, 0.1% Tween, 1 mM ATP, temperature not stated; NMR: 20 mM phosphate pH 5.6, 50 mM NaCl, 303 K (also 293 K), 26 uM protein. The following applies: protein: recombinant; chain copies: 6; label: 5' biotin. (In general: BLI is a label-free optical method that tracks binding on a fibre tip over time.)

In series [2] the target is T1, VcDnaB. The series is described as follows: BLI; ATP; + VcDciA 25-100 nM; comparable to ssDNA; BLI: 50 mM Hepes pH 7.0, 150 mM NaCl, 0.1% Tween, 1 mM ATP, temperature not stated; NMR: 20 mM phosphate pH 5.6, 50 mM NaCl, 303 K (also 293 K), 26 uM protein. The settings on record: protein: recombinant; chain copies: 6; label: 5' biotin on strand 1; fork, 38 nt hybridized zone; non-complementary tails (strand 1 3' side, strand 2 5' side); 5' overhang 2 nt (AA) of strand 1.

B1: ssDNA oso23 (ssDNA)
DNA: AAGCGTGGTGAAACCTACCTCTGATTCGAAACCTTCACTTTACGTGGTCTGGCGTGGTGAATGTTCGTCGGCGTGCTCGA
With B1, in the series with VcDnaB [1], the binding result is “binds”.

B2: foDNA oso23/oso18 (dsDNA)
DNA 1: B1 DNA
DNA 2: CCAGGAATACGGCAAGTTGGAGGCCGGGCTGGATGGAGACTAAGCTTTGGAAGTGAAGGTTTCGAATCAGAGGTAGGTTTCACCACGC
Regarding B2, the binding result with VcDnaB [2] was “binds”.

Source of the values: publication PMC9865707, “Structural Insights of the DciA Helicase Loader in Its Relationship with DNA”.
